Test: soluble on expression in E. coli; label from the status in PepcDB or PDB records

| Sequence | soluble on expression in E. coli |
| --- | --- |
| MRRAFLVNSDKCIGCRGCAMACKSFNQLEPDRFWRYVYPLDKDIYPHEERAFYSLACNHCEHPACVAACPVEAYTKREDGVVVHNPERCIGCKNCIRNCPYGAPRFNEETRKAEKCSMCYERLDIGMNPACVNACPVGALSIIDLDADPVPDNAVQYPPGFPHMPQLNPGTRFILARQPKQPEDK | not soluble |
| MIARLAIAALLVSSSLACLPGLGGLGGGCGGAAASPCAAPPMPPPVSCGGGCGAAPYPAGPMAAPYFAPAAIAPPPPPQGAVIGVGAQPAVYSAPLPAGNAYVGQGK | not soluble |
| MAHHHHHHMRGKRRQHRELYQAVLREQAAKAQEDAAQRRARLSWKEKLQLSFQEARESVTQLTSAKAGVMALLQHCTASHTAEVALEQGIDVKNVQMVFEKAAASNSVGVEEIVVGYIDAPGASHEEVMAFAEKLHKVCPVAKSMHIEWRQGSADSRRHEDGAVRRADGLHREMEQAASGVEWAESRTGSNLGGRSSAADAASTTSVESMPAGMPGSRRVQSSMSSRATRGGSLRDDEDKLHFPGVEKRDTAWDSTRHGSSRAKEPSTETSTASHRPPPPESASAATTQPGACSSDPASASPFPKP | soluble |
| MTYEAGCGLIKALEDPDNRVRQRAVKTLGKRGNPDVLEDLMEALKDSRQPVQEAASEALRKIIAASDSVPVLVKALDATDRNVRKAAIEALWKAGTPEAIPPLLRELDDADWYLRSRAADALADIASPEAALGLIKVMDIHDSPVKKIIVNALGKIGTVEAVEGLVKALEDLEHHHHHH | not soluble |
| MAFIHTSLTRLMRFAVDQTKDIIEPLMVTKVLTEFSESENDGLSHYAHYAKFHNYLVPNMAKLAEYSIEERVRVIFGFAAVVSDDFLKQIQREGLVHLDKKKRICKFTSHNGKWKLEGDHSHSARMKRRWSMRVRVVVGLPSLMNFLVEKTKDIIEPMLASAAFREFSESEDGGLPEHAYYNHFHKNVAPNMAKIEEYSIEERVRVMFALAGRVSADFRAQTKGLVELDDGKRISKFTSTDGKLKLEGDHSDSARRKRSAAFYRKTDHHCRSANDSKPRRKNGRQSDSEFSDKSGSDEDDVESAISYGNSPKRARCEKSADPEMHVSSGSDDDEVEDVGGMDEEPVLLPIDSDESHIGHLQNGEEMMVEDDNQPIPEDPQYSANSSHQGRRMSGRIQEKLSASIAQETTDAAVAIPHVPILNPPFESDDEEVKYIGAVKGQPKPGPIESVFDQINNRDHFQGNQEYRNQSISERKVDVPLFVEHQQISLSAENRATSAEWKSIFLHDFLKQLTQFICFFECSELAEIKRNIKEVMADEGKISSFQKLEIIDIRTVLGAFFFGVSRKIKSTGSNNSTMKAKDFLVTFKYFLLGLDFSELLELSTVFKRKLTSSHVQRHPPSSPKPTLHNF | not soluble |
| MSLDEKLRTSGVQVIGDIAWGTHFCQFYRTQEELVNVVCPYLKAGLEGNELCIWALPRDFETKKEAEGPLRRTIPKLDIYLEKGQMEIISYKDRYAEKEIPDSKKALENLIKKADYALLNGYSGLRLVQDTSWLKNDWKNLTGYEEELDIAIENRRITALCTYSSGKFDTDETIYAALSHRFVLVKKEGNWEKVENPRLKKAEERVIQPSEEVETKTEEENENLKKLLEERTVELTEAYKSLKVNEKQFLQIRKMTHIGNWKWDILTGELHWSDEVYRIFGRDPERFKATCDAFLGSVHPDDREYLINSIKKDFDEQIRNIDYRIVLPDGEERTVRTRVEITFDEENQPVRAEGIVQDITELKRIEKALQEREEQYRAFFENSMDAVLFASPDGTIHAANKAACKTFGMTEKEIIRAGRNGIVDQSDPRLKPSLEERNSTGRFKGEINHKRKDGTIFPGEVSTALFKDKNGLMKIVIIIRDITERKKAEEVLRKSEEHYRMLFTNEGHHHHHH | soluble |
| MSSAAKNFYQVVKSAPKGRFKGIKRDYTVEDVLKLRGSIDIDYTLATRGANKLWQLLHTEPFVPALGAQTGNQAVQMVRAGLKAIYLSGWQVAADANSAGDMYPDQSLYPANSGPELAKRINRSLRRADQIEACEAEDYLAQRDWYAPIVADAEAGFGGALNCFELMKAYIEAGAAGVHYEDQLGSEKKCGHMGGKVLIPTAQHIRHLNASRLAADVCGVPTIIVARTDAESSRLLTSDIDPRDHPYIDYEAGRTIEGFYRLKDSTAIQYCIDRAIQYAPYTDLIWMETSHPTIADAREFAEGVHKQYPDKMFAYNCSPSFNWKKHLSPSQMEKFQKELGAMGFKYQFITLAGYHANSYSMFDLARNYKEKGMLAYSGLQEGEFAAEKHGYTAVKHQREVGTGYFDAVSRAVTGGLSSTTALSGSTEEAQFQTAVASQDEEILSLTAQNVAGDEKILTPDALRFLHDLNTEFNPRRLRLLSKRNQVQADINNSLWFPDFNKETEVLRSDQGWKGAEIPRDLQDRRVEITGPTDRKMVINAMNSGANVFMADFEDSNSPTWRNQLEGQINLYDAVRNNISYTHPTTKKEYTLNEKHAVLKVRPRGWHLPEKHVLIHNQPTSGSLFDFGLFVFHNAKALIAQGSGPYFYLPKLQSAEEAQLWADVFKYTEDKLGLARGTIKCTVLIEHLLASFQLHEIIHALKDNIVGLNCGRWDYIFSYIKTFQNHRKFLLPDRFQIGMTAPFMRNYSLEVIKACHLRGIHAMGGMAAQIPIKHDQVANDKAFALVRADKEREATDGHDGTWVAHPGLVPLAKRVFDQMMPKPNQISKNLTRANCTKEDLTVIPEGTRTEAGFRHNISVTLGYLDSWLRGTGCVPLYNLMEDAATAEISRAQLWQWLHHDAKLEDGRTIDAGLVKQTIAAETERRLIRAGSVVNRIPEAADLLEKFVTEEKMSDFLTTDAYDRLVSEGY | not soluble |
| LMENGPEFKIEVSILKDVATVMIDTTGSSLFKRGYRTEKGGAPIKENMAAAILQLSNWYPDKPLIDPTCGSGTFCIEAVMIARKMAPGLRRSFAFEEWNWISDRLIQEVRTEAAKKVDRELELDIMGCDIDARMVEIAKANAQVAGVAGDITFKQMRVQDLRSDKINGVIISNPPYGERLSDDAGVTKLYAEMGQVFAPLKTWSKFILTSDEAFESKYGSQADKKRKLYNGTLKVDLYQYFGQRVKRQEVK | not soluble |
| MGSDKIHHHHHHMANDWLELRQHADTGIETIKAHFEGHAYDPHWHDSYLVGLTLSGTQQFHCRRERHRSRPGDAFLLEPGEIHDGDAPVDGGFTYLTFYLDEQWLTNALHGLYESTPGSYSLHFAQTLTREPQLVRSISDSFTTLHNDEMKIVQQSSMDKLLSQITAHCHWRKRLPSQLQSTAVAHRARDYLYAHMGENIGLSDLARETGTDRFTLTRCFKREFHLAPHAWFIQLRLAKARQLLAYGDQPADVAAALGFSDQSHLGRWFQRAYRISPAHYRRLCTNLPDVSRR | not soluble |
| MSCSHYEERVEKVELPQLKVNGMAIGEDLLARELQYHPADSYALALEAACRALIVRQLLLQRADALGIEARCEDGETPEEARIRQLLEEEVQVPEADEDACRTWYAANPGRLLGPWRLQLRHVLLACAPDDLEGRETARKQAAELLDELRGHPERFVDLARRFSACPSKESGGDLGWIEPGQTVPEFEKRLLRRAPGLLEHPLESRYGLHVVELLAREGGEPLDFDAARAQIAAHLQAQVLQRAVGQYIGVLAGD | not soluble |
| MTRRDNEERVLHAATDTEQSQVTDLRQNVSATPLTDAEVGRLQLLEERATVQVERQGIGQVQVRKVVRERQEMVPVTLTTEVLEIVVTPAAQGTGAQNVGDTQTAAASAAGTTGNGGVSQVLIDGKPLEAGQTYEIPLTEERVQVMRQVVPLSEVVVRRQAQATTHEETVTLRREELEVLDEQGLARIVDEGAALEHHHHHH | soluble |
| MTINEPLLSPLEQVVRNIEQVIVGKRNVIVLSLTALLAKGHVLLEDVPGVGKTMLVRALAKSFSAELKRIQFTPDLLPSDVIGVSVYNPKTQQFEYKPGPIVAHIVLADEINRTSPKTQSALLEAMEEGSVTVDGVTRALPQPFFVMATQNPIEYEGTYPLPEAQLDRFLLKLHMRYPSPDEEIEMLNRLEKTAPLAEIGPVMSLDELLALQRKVADVHVSDTVKRYIVDLIQQSRQHEAVYLGVSPRGSVALMKAAQAYAFIHGRDFVIPDDVQQLAPYVLAHRLLVRPEAKWDKFDAETIIGQLIARTPVPVPGRR | not soluble |
| GHELSAIIPRSSWLAQKPMDEPLPLQLPVKYVVILHTATESSEKRAINVRLIRDMQSFHIESRGWNDIAYNFLVGCDGNIYEGRGWKTVGAHTLGYNRISLGISFIGCFMKELPTADALNMCRNLLARGVEDGHISTDYRLICHCQCNSTESPGRRLYEEIQTWPHFYNIEEEEQ | soluble |
| MEINVDQINLMTKKGLRGDLKNFESVLDFLEKYGNATIVKYGMYSLVFQIAMNKFIDISKECEECGGKCCQIGYPVPVYGFDYEELRNKLSMEDLKKLEKVDSNLFLLRRPCKFQKGWYCSIHKFKPYACLSYPFATEDEQRDAINSYDGKGIPDLEHHHHHH | not soluble |
| MGHHHHHHSHMEFIVDSVDKTMHIGRQLGSLVNKGDILCLTGDLGTGKTHISKGIAEGLGIDEHITSPTFNIVNEYHSGRLTLYHFDVYRVNDPDEIEAIGFDEYIFGDGVSLIEWANYIEELIPEEYIHIKIEKLPDMGENFRKITINGYGDRYNYIKEIKE | not soluble |
| AIAAEMKTYSHRTMPSACTLVMCSSVESGLPGRDGRDGREGPRGEKGDPGLPGAAGQAGMPGQAGPVGPKGDNGSVGEPGPKGDTGPS | soluble |
| SLSRISPGNFSTNSYTSTIIKDVRFCLLLCRSLMEGWRITLLNEQEKTIFVDADACPVKDEILQTASEYEVQVLFVASFEHYQLSRSNEEKWKYVDPHKEAADLYIANHVKPGDIVVTQDIGLASLLLNRNVSVMSERGRLYKEDTIDFALEGRHFSGKQRRKGVYAKGPKKLNKEDRERFITLLQKILSNDEGILH | not soluble |
| DIVMTQSPDSLAVSPGERATINCKSSQNLLDSSFDTNTLAWYQQKPGQPPKLLIYWASSRESGVPDRFSGSGSGTDFTLTISSLQAEDVAVYYCQQYYSTPPTFGGGTKVEIKR | soluble |
| VDKIYVIEENDPFIEEQIKAYGIDCIGKDVIPPYGEMTPDVLRKAIFGKTNDTIEYKSELVTPRPPSFCAGCPHRGFFYELGKRKNLIVGGDIGCYTLGFAPPYNGIDYVVCMGSAFGTAHGAQKVLNMKDDNEKRLVGVLGDSTFFHTGINGLLDVVYNRGNSISVILDNRITGMTGHQENPGSGYTLQGAKTKEVDIEGLVKACGIEHVRVINPNNLKEVNEALDWALAIEDEPSVIIT | not soluble |
| MGSDKIHHHHHHMKRGLNLDQWVTWPGEDQWGDAKTILPYPEWRKFLGDDDLRALKGAGFDFLRMPVDPSPFLSDQTAALRDDLYASVLDSVRMINRAGLKVIVDMHLIPAGGSRKIGMAQVMDDPRTFDRYLDMVRKMARTLAGEDPEKVAFEPMNEPIVDCDSDGTSLWPDRQRELFAAARSSATKLTLVLTGACYSAASSLEKIDPKAISDDNVIWTFHSYDPFLLTHQGATWAGDFIPYVTGLPYPLNAVPKAQLDATLDIIRARIKAEAPWTRQSGLLAYLDEQVASMDSPDKLLGLMDAPFKKVEAWAKANGVKPENITLGEFGMIRQEYGNAYVMPAQYRAAYVRDMIARAEAHGFSWSVWSYGGAFGIVDAFNGDKGEPDVMDVIRSLH | not soluble |
| MGSDKIHHHHHHMMFVVNRHINYTDICVAKCPLCAFNNREGYLLSPEEILRKVREVDGITEVHIVGGHNPEVGVEYFEEVFRRIKREKPEVVIKALTATEVYYYAKKEKMSIREFLSRLKDAGLQAMPGGGAEILVDSVRRKISPNKCSSDEWLRVMKIAHELGIKSNATMLFGHVEEIRHRAIHLYRLRKLQEKTGGFVSFIPLVYHPENNPLGKIVREKTNPVDILKTIAVSRIALDNFRSVRAYWVMLGEKLTEVALRFGANDIDGTVVEEKVTHAAGAETPAGLTVERLVEICRSAGKRVGQRDTFCNILKWYA | not soluble |

— the DeepSol protein solubility set
